Key:
[1] = target: αHGF S2gG (HGF-specific 2-piece Surrobody); experiment: capture ELISA: anti-VpreB1 IgG (2460B04 IgG1) coated, S2gG diluted without serum, detected with HRP-goat anti-E tag antibody; the concentration is that of S2gG
[2] = target: αHGF S3gG (HGF-specific 3-piece Surrobody); experiment: capture ELISA: anti-VpreB1 IgG (2460B04 IgG1) coated, S3gG diluted in 50% human or 50% monkey serum; the concentration is that of S3gG
[3] = target: αHGF S3gG (HGF-specific 3-piece Surrobody); experiment: capture ELISA: anti-VpreB1 IgG (2460B04 IgG1) coated, S3gG diluted in 50% mouse serum; the concentration is that of S3gG
[4] = target: αHGF S3gG (HGF-specific 3-piece Surrobody); experiment: capture ELISA: anti-VpreB1 IgG (2460B04 IgG1) coated, S3gG diluted without serum; the concentration is that of S3gG
[5] = target: αHGF S2gG (HGF-specific 2-piece Surrobody); experiment: capture ELISA: anti-VpreB1 IgG (2460B04 IgG1) coated, S2gG diluted in 50% mouse serum, detected with HRP-goat anti-E tag antibody; the concentration is that of S2gG
[6] = target: αHGF S2gG (HGF-specific 2-piece Surrobody); experiment: capture ELISA: anti-VpreB1 IgG (2460B04 IgG1) coated, S2gG diluted in 50% human or 50% monkey serum, detected with HRP-goat anti-E tag antibody; the concentration is that of S2gG

EC50 (read off the curve) [1]: 4 ng/mL
EC50 (read off the curve) [2]: 6 ng/mL
EC50 (read off the curve) [3]: 20 ng/mL
EC50 (read off the curve) [4]: 4 ng/mL
EC50 (read off the curve) [5]: 20 ng/mL
EC50 (read off the curve) [6]: 6 ng/mL
B1: anti-human VpreB1 IgG1 (2460B04 IgG1) (antibody, V domains shown)
VH: EVQLVESGGGLVKPGGSLRLSCAASGFTFSNFEMNWVRQAPGKGLEWVSGISSNGRYINYADSVKGRFTISRDNAKNSLYLQMNSLRAEDTAVYYCARVVDFDQDYNGFDYWGQGTLVTVSS
VL: DIQLTQSPSFLSASVGDRVTITCRASQGISTDLNWYQQKPGKAPKLLIYAASNLESGVPSRFSGSGSGTEFTLTISSLQPEDFATYYCQQSYNWPYTFGGGTKVEIK
modifications: Used unlabeled, biotin-, DIG- or HRP-labeled; the letters do not carry the labels.

Reference: patent US20180265594A1
